# Source: IntAct's records for PubMed 35512704
# B1: Speckle-type POZ protein (Homo sapiens), O43791 (parent)
# chain: MSRVPSPPPPAEMSSGPVAESWCYTQIKVVKFSYMWTINNFSFCREEMGEVIKSSTFSSGANDKLKWCLRVNPKGLDEESKDYLSLYLLLVSCPKSEVRAKFKFSILNAKGEETKAMESQRAYRFVQGKDWGFKKFIRRDFLLDEANGLLPDDKLTLFCEVSVVQDSVNISGQNTMNMVKVPECRLADELGGLWENSRFTDCCLCVAGQEFQAHKAILAARSPVFSAMFEHEMEESKKNRVEINDVEPEVFKEMMCFIYTGKAPNLDKMADDLLAAADKYALERLKVMCEDALCSNLSVENAAEILILADLHSADQLKTQAVDFINYHASDVLETSGWKSMVVSHPHLVAEAYRSLASAQCPFLGPPRKRLKQS
# partner: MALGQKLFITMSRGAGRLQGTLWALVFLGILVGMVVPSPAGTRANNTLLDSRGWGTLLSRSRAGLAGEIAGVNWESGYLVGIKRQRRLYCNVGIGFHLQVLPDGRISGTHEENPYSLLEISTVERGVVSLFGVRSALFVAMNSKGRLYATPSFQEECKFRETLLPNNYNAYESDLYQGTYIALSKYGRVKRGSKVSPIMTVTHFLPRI
# B2: Speckle-type POZ protein (Homo sapiens), O43791 (parent)
# chain: B1 chain
# partner: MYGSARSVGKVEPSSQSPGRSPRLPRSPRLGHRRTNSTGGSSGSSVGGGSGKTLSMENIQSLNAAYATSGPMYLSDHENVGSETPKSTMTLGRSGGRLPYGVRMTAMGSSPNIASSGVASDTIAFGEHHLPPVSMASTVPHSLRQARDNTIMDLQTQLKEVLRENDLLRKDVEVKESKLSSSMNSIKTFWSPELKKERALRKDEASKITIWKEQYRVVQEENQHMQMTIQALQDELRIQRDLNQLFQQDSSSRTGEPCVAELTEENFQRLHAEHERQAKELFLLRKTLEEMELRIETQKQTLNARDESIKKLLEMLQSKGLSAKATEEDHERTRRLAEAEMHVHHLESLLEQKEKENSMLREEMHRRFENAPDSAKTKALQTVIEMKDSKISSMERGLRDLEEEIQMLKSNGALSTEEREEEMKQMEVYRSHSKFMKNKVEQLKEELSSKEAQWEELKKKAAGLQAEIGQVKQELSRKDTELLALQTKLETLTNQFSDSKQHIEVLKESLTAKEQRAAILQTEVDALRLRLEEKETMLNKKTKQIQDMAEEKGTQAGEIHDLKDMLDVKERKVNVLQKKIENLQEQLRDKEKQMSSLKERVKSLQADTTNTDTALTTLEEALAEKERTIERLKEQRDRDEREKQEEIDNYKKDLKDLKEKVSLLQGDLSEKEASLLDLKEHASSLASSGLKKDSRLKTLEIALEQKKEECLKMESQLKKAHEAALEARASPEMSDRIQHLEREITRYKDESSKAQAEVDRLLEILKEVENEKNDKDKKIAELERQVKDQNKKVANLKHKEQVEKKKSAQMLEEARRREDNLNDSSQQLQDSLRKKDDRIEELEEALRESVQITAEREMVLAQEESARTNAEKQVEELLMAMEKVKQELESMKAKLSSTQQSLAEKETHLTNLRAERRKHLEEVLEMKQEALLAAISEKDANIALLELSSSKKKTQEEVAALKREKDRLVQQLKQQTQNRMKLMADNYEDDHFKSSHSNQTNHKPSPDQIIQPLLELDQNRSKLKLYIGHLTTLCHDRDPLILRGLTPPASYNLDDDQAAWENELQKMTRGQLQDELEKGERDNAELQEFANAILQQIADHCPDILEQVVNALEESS
# B3: Speckle-type POZ protein (Homo sapiens), O43791 (parent)
# chain: B1 chain
# partner: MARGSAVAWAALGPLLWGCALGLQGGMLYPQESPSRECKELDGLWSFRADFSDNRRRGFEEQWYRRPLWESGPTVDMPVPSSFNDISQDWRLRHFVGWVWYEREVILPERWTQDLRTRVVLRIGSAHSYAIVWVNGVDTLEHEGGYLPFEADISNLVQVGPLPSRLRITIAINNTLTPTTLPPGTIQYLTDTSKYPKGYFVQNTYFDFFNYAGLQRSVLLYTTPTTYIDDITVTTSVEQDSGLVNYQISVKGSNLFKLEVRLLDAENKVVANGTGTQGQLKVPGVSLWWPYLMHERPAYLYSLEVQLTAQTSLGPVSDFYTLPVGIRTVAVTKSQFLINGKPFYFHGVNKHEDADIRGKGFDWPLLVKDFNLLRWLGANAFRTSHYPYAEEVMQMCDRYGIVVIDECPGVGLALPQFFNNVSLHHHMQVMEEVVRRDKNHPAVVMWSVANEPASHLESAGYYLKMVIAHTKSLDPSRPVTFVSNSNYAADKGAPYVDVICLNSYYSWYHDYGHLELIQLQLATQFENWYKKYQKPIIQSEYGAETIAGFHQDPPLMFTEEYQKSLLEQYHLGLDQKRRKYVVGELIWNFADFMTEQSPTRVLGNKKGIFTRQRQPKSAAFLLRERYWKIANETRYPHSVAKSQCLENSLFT
# Variants of: B1
# Conditions: with fgf6_human FGF6, P10767
row,Variant,effect of a mutation on the interaction
1,F133V,with no effect

# Variants of: B1
# Conditions: with fgf6_human FGF6, P10767
# Remark: another data set of the same source
row,Variant,effect of a mutation on the interaction
1,F133L,with no effect

# Variants of: B1
# Conditions: with fgf6_human FGF6, P10767
# Remark: another data set of the same source
row,Variant,effect of a mutation on the interaction
1,Y87C,with no effect

# Variants of: B1
# Conditions: with fgf6_human FGF6, P10767
# Remark: another data set of the same source
row,Variant,effect of a mutation on the interaction
1,F102C,with no effect

# Variants of: B2
# Conditions: with rb6i2_human ERC1, Q8IUD2
row,Variant,effect of a mutation on the interaction
1,Y87C,with no effect

# Variants of: B2
# Conditions: with rb6i2_human ERC1, Q8IUD2
# Remark: another data set of the same source
row,Variant,effect of a mutation on the interaction
1,F133V,with no effect

# Variants of: B2
# Conditions: with rb6i2_human ERC1, Q8IUD2
# Remark: another data set of the same source
row,Variant,effect of a mutation on the interaction
1,F133L,with no effect

# Variants of: B2
# Conditions: with rb6i2_human ERC1, Q8IUD2
# Remark: another data set of the same source
row,Variant,effect of a mutation on the interaction
1,F102C,with no effect

# Variants of: B3
# Conditions: with bglr_human GUSB
row,Variant,effect of a mutation on the interaction
1,F133L,with no effect

# Variants of: B3
# Conditions: with bglr_human GUSB
# Remark: another data set of the same source
row,Variant,effect of a mutation on the interaction
1,F133V,with no effect

# Variants of: B3
# Conditions: with bglr_human GUSB
# Remark: another data set of the same source
row,Variant,effect of a mutation on the interaction
1,Y87C,with no effect

# Variants of: B3
# Conditions: with bglr_human GUSB
# Remark: another data set of the same source
row,Variant,effect of a mutation on the interaction
1,F102C,with no effect
